Measured values as given in patent publication EP4799649A1 (RemeGen Co., Ltd., dated 2026).

Assays:
Blys homotrimer = target: T1, Blys homotrimer (UniProt Q9Y275 134-285); assay: ELISA on Blys homotrimer
T1 construct: also called BAFF; B lymphocyte stimulator

APRIL homotrimer = target: T2, APRIL homotrimer (UniProt O75888 105-250, limits assumed); assay: ELISA on APRIL homotrimer
T2 construct: also called a proliferation-inducing ligand
T2 sequence (looked up): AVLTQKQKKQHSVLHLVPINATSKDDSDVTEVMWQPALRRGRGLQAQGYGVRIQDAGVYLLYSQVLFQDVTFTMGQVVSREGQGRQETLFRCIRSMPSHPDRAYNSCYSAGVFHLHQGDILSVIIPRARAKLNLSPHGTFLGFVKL

T1 sequence (Q9Y275 134-285 limits assumed): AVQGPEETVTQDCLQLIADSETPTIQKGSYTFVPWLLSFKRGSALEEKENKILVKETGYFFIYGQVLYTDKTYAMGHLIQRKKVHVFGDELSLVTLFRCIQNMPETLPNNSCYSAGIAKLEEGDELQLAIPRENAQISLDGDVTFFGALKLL

B1: telitacicept (Fc fusion)
chain: SRVDQEERFPQGLWTGVAMRSCPEEQYWDPLLGTCMSCKTICNHQSQRTCAAFCRSLSCRKEQGKFYDHLLRDCISCASICGQHPKQCAYFCENKLRSPVNLPPELDKTHTCPPCPAPEAEGAPSVFLFPPKPKDTLMISRTPEVTCVVVDVSHEDPEVKFNWYVDGVEVHNAKTKPREEQYNSTYRVVSVLTVLHQDWLNGKEYKCKVSNKALPSSIEKTISKAKGQPREPQVYTLPPSRDELTKNQVSLTCLVKGFYPSDIAVEWESNGQPENNYKTTPPVLDSDGSFFLYSKLTVDKSRWQQGNVFSCSVMHEALHNHYTQKSLSLSPGK
notes: TACI-Fc fusion protein (truncated TACI plus optimized human IgG1 Fc); also called RC18; Tai'ai
EC50 (Blys homotrimer): 219 pM
EC50 (APRIL homotrimer): 1100 pM

B2: povetacicept (Fc fusion)
chain: SLSCRKEQGEYYDHLLRDCISCASICGQHPKQCADFCENKLRSGSGGGGSEPKSSDKTHTCPPCPAPEAEGAPSVFLFPPKPKDTLMISRTPEVTCVVVDVSHEDPEVKFNWYVDGVEVHNAKTKPREEQYNSTYRVVSVLTVLHQDWLNGKEYKCKVSNKALPAPIEKTISKAKGQPREPQVYTLPPSRDELTKNQVSLTCLVKGFYPSDIAVEWESNGQPENNYKTTPPVLDSDGSFFLYSKLTVDKSRWQQGNVFSCSVMHEALHNHYTQKSLSLSPG
notes: Fc fusion protein of an engineered TACI domain
EC50 (Blys homotrimer): 57 pM
EC50 (APRIL homotrimer): 128 pM
